The source of these data is article doi:10.1101/2020.11.23.395327.

In test [1] the target is PII(WT)-His, signaling protein PII from Synechocystis sp. PCC 6803 (Synechocystis sp. PCC 6803) (UniProt Q55247). Put plainly: BLI. (Biolayer interferometry detects binding as a change in optical thickness at a sensor tip.)
The target of test [2] is PII(S49E), phosphomimetic variant (Synechocystis sp. PCC 6803) (UniProt Q55247). Nature of the test: BLI.

The Kd is the concentration at which binding is half-saturated. As to “GST-PirA (GST-tagged PII-interacting regulator of arginine synthesis, Ssr0692) (natural protein)”, the Kd was found to be 2900 nM in test [1] and 2500 nM in test [2].

For the substance tag-free PirA (natural protein), the binding signal, fold lower than that of GST-PirA in test [1] stood at 6 fold.
